Measurements from US20140087995A1 (published 2014).
Numbered stars: 1 amine (or outer) side, 2 acyl side, 3 side chain; on linkers, the order of the positions; unused ones are H or OH. Bridge positions count the residues as written; N and C are the ends. Side chains are listed from the residue outwards. Ends that are not written are not given here. * marks the point of attachment. C20 diacid = O=C(O)CCCCCCCCCCCCCCCCCCC(=O)*; γGlu = O=C(O)[C@H](CCC(=O)[*:2])N[*:1]; AEEA = NCCOCCOCC(=O)O

T1: human calcitonin receptor (human, UniProt P30988 25-474)
T1 construct: whole, on cells; also called hCTR; hCT
T1 sequence (looked up): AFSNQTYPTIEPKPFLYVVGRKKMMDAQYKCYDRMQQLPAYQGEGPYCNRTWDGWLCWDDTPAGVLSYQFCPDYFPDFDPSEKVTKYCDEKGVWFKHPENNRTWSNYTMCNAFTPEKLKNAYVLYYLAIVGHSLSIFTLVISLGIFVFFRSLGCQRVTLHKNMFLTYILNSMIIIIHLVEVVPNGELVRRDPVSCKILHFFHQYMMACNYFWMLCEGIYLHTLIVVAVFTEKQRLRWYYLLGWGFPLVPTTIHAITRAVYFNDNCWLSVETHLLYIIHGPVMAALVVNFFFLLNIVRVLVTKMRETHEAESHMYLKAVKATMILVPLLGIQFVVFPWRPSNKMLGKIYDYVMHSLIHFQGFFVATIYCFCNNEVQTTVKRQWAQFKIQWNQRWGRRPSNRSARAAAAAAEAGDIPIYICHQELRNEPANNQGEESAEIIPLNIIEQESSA


Experiments:
[1] = target: T1, human calcitonin receptor; test: SPA radioligand competition (125I-calcitonin), membranes of BHK cells with human calcitonin receptor
How it was run: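 BHK hCTR membranes 35 ng/μL + SPA beads 0.05 mg/well; buffer 50 mM Hepes pH 7.4, 1 mM CaCl2, 5 mM MgCl₂, 0.1% OA, 0.02% Tween20. 120 min, 25° C., shaking. Scintillation count; IC50 by one-site binding competition.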

[2] = target: T1, human calcitonin receptor; test: ratio of IC50 at human calcitonin receptor to IC50 at human amylin receptor (SPA competition assays)
How it was run: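 Membranes (35 ng/μL final) + SPA beads, 50 mM Hepes pH 7.4 buffer with 1 mM CaCl2, 5 mM MgCl₂, 0.1% OA, 0.02% Tween20; 120 min, 25° C, shaking; centrifuged, counted; IC₅₀ by one-site binding competition.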

Row | Binder | IC50 [1] | Ratio hCT/hAmylin binding [2]
1 | K([γGlu-γGlu-C20 diacid])CNTATCATQRLANFLRHSSPNFGAIPSSTNVGHNTY-NH2 (disulfide 2-7; N-terminus assumed; SMILES CC[C@H](C)[C@H](NC(=O)[C@H](C)NC(=O)CNC(=O)[C@H](Cc1ccccc1)NC(=O)[C@H](CC(N)=O)NC(=O)[C@@H]1CCCN1C(=O)[C@H](CO)NC(=O)[C@H](CO)NC(=O)[C@H](Cc1c[nH]cn1)NC(=O)[C@H](CCCNC(=N)N)NC(=O)[C@H](CC(C)C)NC(=O)[C@H](Cc1ccccc1)NC(=O)[C@H](CC(N)=O)NC(=O)[C@H](C)NC(=O)[C@H](CC(C)C)NC(=O)[C@H](CCCNC(=N)N)NC(=O)[C@H](CCC(N)=O)NC(=O)[C@@H](NC(=O)[C@H](C)NC(=O)[C@@H]1CSSC[C@H](NC(=O)[C@@H](N)CCCCNC(=O)CC[C@H](NC(=O)CC[C@H](NC(=O)CCCCCCCCCCCCCCCCCCC(=O)O)C(=O)O)C(=O)O)C(=O)N[C@@H](CC(N)=O)C(=O)N[C@@H]([C@@H](C)O)C(=O)N[C@@H](C)C(=O)N[C@@H]([C@@H](C)O)C(=O)N1)[C@@H](C)O)C(=O)N1CCC[C@H]1C(=O)N[C@@H](CO)C(=O)N[C@@H](CO)C(=O)N[C@H](C(=O)N[C@@H](CC(N)=O)C(=O)N[C@H](C(=O)NCC(=O)N[C@@H](Cc1c[nH]cn1)C(=O)N[C@@H](CC(N)=O)C(=O)N[C@H](C(=O)N[C@@H](Cc1ccc(O)cc1)C(N)=O)[C@@H](C)O)C(C)C)[C@@H](C)O, also called compound 86) | 133 nM | 159
2 | K([AEEA-C20 diacid])CNTATCATQRLANFLRHSSPNFGAIPSSTNVGHNTY-NH2 (disulfide 2-7; N-terminus assumed; SMILES CC[C@H](C)[C@H](NC(=O)[C@H](C)NC(=O)CNC(=O)[C@H](Cc1ccccc1)NC(=O)[C@H](CC(N)=O)NC(=O)[C@@H]1CCCN1C(=O)[C@H](CO)NC(=O)[C@H](CO)NC(=O)[C@H](Cc1c[nH]cn1)NC(=O)[C@H](CCCNC(=N)N)NC(=O)[C@H](CC(C)C)NC(=O)[C@H](Cc1ccccc1)NC(=O)[C@H](CC(N)=O)NC(=O)[C@H](C)NC(=O)[C@H](CC(C)C)NC(=O)[C@H](CCCNC(=N)N)NC(=O)[C@H](CCC(N)=O)NC(=O)[C@@H](NC(=O)[C@H](C)NC(=O)[C@@H]1CSSC[C@H](NC(=O)[C@@H](N)CCCCNC(=O)COCCOCCNC(=O)CCCCCCCCCCCCCCCCCCC(=O)O)C(=O)N[C@@H](CC(N)=O)C(=O)N[C@@H]([C@@H](C)O)C(=O)N[C@@H](C)C(=O)N[C@@H]([C@@H](C)O)C(=O)N1)[C@@H](C)O)C(=O)N1CCC[C@H]1C(=O)N[C@@H](CO)C(=O)N[C@@H](CO)C(=O)N[C@H](C(=O)N[C@@H](CC(N)=O)C(=O)N[C@H](C(=O)NCC(=O)N[C@@H](Cc1c[nH]cn1)C(=O)N[C@@H](CC(N)=O)C(=O)N[C@H](C(=O)N[C@@H](Cc1ccc(O)cc1)C(N)=O)[C@@H](C)O)C(C)C)[C@@H](C)O, also called compound 91) [N^ε1-[2-[2-[2-(19-carboxynonadecanoylamino)ethoxy]ethoxy]acetyl]-[Arg17,Pro21,Pro27,His34]-h-amylin] | 12 nM | 101
3 | K([γGlu-γGlu-C20 diacid])CNTATCATQRLAEFLRHSSPNFGAIPSSTNVGPETY-NH2 (disulfide 2-7; N-terminus assumed; SMILES CC[C@H](C)[C@H](NC(=O)[C@H](C)NC(=O)CNC(=O)[C@H](Cc1ccccc1)NC(=O)[C@H](CC(N)=O)NC(=O)[C@@H]1CCCN1C(=O)[C@H](CO)NC(=O)[C@H](CO)NC(=O)[C@H](Cc1c[nH]cn1)NC(=O)[C@H](CCCNC(=N)N)NC(=O)[C@H](CC(C)C)NC(=O)[C@H](Cc1ccccc1)NC(=O)[C@H](CCC(=O)O)NC(=O)[C@H](C)NC(=O)[C@H](CC(C)C)NC(=O)[C@H](CCCNC(=N)N)NC(=O)[C@H](CCC(N)=O)NC(=O)[C@@H](NC(=O)[C@H](C)NC(=O)[C@@H]1CSSC[C@H](NC(=O)[C@@H](N)CCCCNC(=O)CC[C@H](NC(=O)CC[C@H](NC(=O)CCCCCCCCCCCCCCCCCCC(=O)O)C(=O)O)C(=O)O)C(=O)N[C@@H](CC(N)=O)C(=O)N[C@@H]([C@@H](C)O)C(=O)N[C@@H](C)C(=O)N[C@@H]([C@@H](C)O)C(=O)N1)[C@@H](C)O)C(=O)N1CCC[C@H]1C(=O)N[C@@H](CO)C(=O)N[C@@H](CO)C(=O)N[C@H](C(=O)N[C@@H](CC(N)=O)C(=O)N[C@H](C(=O)NCC(=O)N1CCC[C@H]1C(=O)N[C@@H](CCC(=O)O)C(=O)N[C@H](C(=O)N[C@@H](Cc1ccc(O)cc1)C(N)=O)[C@@H](C)O)C(C)C)[C@@H](C)O) | 2.13 nM | 17.6
4 | K([γGlu-γGlu-C20 diacid])CNTATCATQRLAHFLRHSSPNFGAIPSSTNVGSNTY-NH2 (disulfide 2-7; N-terminus assumed; SMILES CC[C@H](C)[C@H](NC(=O)[C@H](C)NC(=O)CNC(=O)[C@H](Cc1ccccc1)NC(=O)[C@H](CC(N)=O)NC(=O)[C@@H]1CCCN1C(=O)[C@H](CO)NC(=O)[C@H](CO)NC(=O)[C@H](Cc1c[nH]cn1)NC(=O)[C@H](CCCNC(=N)N)NC(=O)[C@H](CC(C)C)NC(=O)[C@H](Cc1ccccc1)NC(=O)[C@H](Cc1c[nH]cn1)NC(=O)[C@H](C)NC(=O)[C@H](CC(C)C)NC(=O)[C@H](CCCNC(=N)N)NC(=O)[C@H](CCC(N)=O)NC(=O)[C@@H](NC(=O)[C@H](C)NC(=O)[C@@H]1CSSC[C@H](NC(=O)[C@@H](N)CCCCNC(=O)CC[C@H](NC(=O)CC[C@H](NC(=O)CCCCCCCCCCCCCCCCCCC(=O)O)C(=O)O)C(=O)O)C(=O)N[C@@H](CC(N)=O)C(=O)N[C@@H]([C@@H](C)O)C(=O)N[C@@H](C)C(=O)N[C@@H]([C@@H](C)O)C(=O)N1)[C@@H](C)O)C(=O)N1CCC[C@H]1C(=O)N[C@@H](CO)C(=O)N[C@@H](CO)C(=O)N[C@H](C(=O)N[C@@H](CC(N)=O)C(=O)N[C@H](C(=O)NCC(=O)N[C@@H](CO)C(=O)N[C@@H](CC(N)=O)C(=O)N[C@H](C(=O)N[C@@H](Cc1ccc(O)cc1)C(N)=O)[C@@H](C)O)C(C)C)[C@@H](C)O, also called compound 92) | 26 nM | 145
5 | K([γGlu-C20 diacid])CNTATCATQRLANFLRHSSPNFGAIPSSTNVGHNTY-NH2 (disulfide 2-7; N-terminus assumed; SMILES CC[C@H](C)[C@H](NC(=O)[C@H](C)NC(=O)CNC(=O)[C@H](Cc1ccccc1)NC(=O)[C@H](CC(N)=O)NC(=O)[C@@H]1CCCN1C(=O)[C@H](CO)NC(=O)[C@H](CO)NC(=O)[C@H](Cc1c[nH]cn1)NC(=O)[C@H](CCCNC(=N)N)NC(=O)[C@H](CC(C)C)NC(=O)[C@H](Cc1ccccc1)NC(=O)[C@H](CC(N)=O)NC(=O)[C@H](C)NC(=O)[C@H](CC(C)C)NC(=O)[C@H](CCCNC(=N)N)NC(=O)[C@H](CCC(N)=O)NC(=O)[C@@H](NC(=O)[C@H](C)NC(=O)[C@@H]1CSSC[C@H](NC(=O)[C@@H](N)CCCCNC(=O)CC[C@H](NC(=O)CCCCCCCCCCCCCCCCCCC(=O)O)C(=O)O)C(=O)N[C@@H](CC(N)=O)C(=O)N[C@@H]([C@@H](C)O)C(=O)N[C@@H](C)C(=O)N[C@@H]([C@@H](C)O)C(=O)N1)[C@@H](C)O)C(=O)N1CCC[C@H]1C(=O)N[C@@H](CO)C(=O)N[C@@H](CO)C(=O)N[C@H](C(=O)N[C@@H](CC(N)=O)C(=O)N[C@H](C(=O)NCC(=O)N[C@@H](Cc1c[nH]cn1)C(=O)N[C@@H](CC(N)=O)C(=O)N[C@H](C(=O)N[C@@H](Cc1ccc(O)cc1)C(N)=O)[C@@H](C)O)C(C)C)[C@@H](C)O, also called compound 77) [N^ε1-[(4S)-4-carboxy-4-(19-carboxynonadecanoylamino)butanoyl]-[Arg17,Pro21,Pro27,His34]-h-amylin] | 50.7 nM | 118

More lines, in order of falling IC50 [1], values ahead:

Row | IC50 [1] | Ratio hCT/hAmylin binding [2] | Binder
6 | 3.44 nM | 45.3 | K([γGlu-γGlu-C20 diacid])CNTATCATQRLASFLRHSSPNFGAIPSSTNVGPETY-NH2 (disulfide 2-7; N-terminus assumed; SMILES CC[C@H](C)[C@H](NC(=O)[C@H](C)NC(=O)CNC(=O)[C@H](Cc1ccccc1)NC(=O)[C@H](CC(N)=O)NC(=O)[C@@H]1CCCN1C(=O)[C@H](CO)NC(=O)[C@H](CO)NC(=O)[C@H](Cc1c[nH]cn1)NC(=O)[C@H](CCCNC(=N)N)NC(=O)[C@H](CC(C)C)NC(=O)[C@H](Cc1ccccc1)NC(=O)[C@H](CO)NC(=O)[C@H](C)NC(=O)[C@H](CC(C)C)NC(=O)[C@H](CCCNC(=N)N)NC(=O)[C@H](CCC(N)=O)NC(=O)[C@@H](NC(=O)[C@H](C)NC(=O)[C@@H]1CSSC[C@H](NC(=O)[C@@H](N)CCCCNC(=O)CC[C@H](NC(=O)CC[C@H](NC(=O)CCCCCCCCCCCCCCCCCCC(=O)O)C(=O)O)C(=O)O)C(=O)N[C@@H](CC(N)=O)C(=O)N[C@@H]([C@@H](C)O)C(=O)N[C@@H](C)C(=O)N[C@@H]([C@@H](C)O)C(=O)N1)[C@@H](C)O)C(=O)N1CCC[C@H]1C(=O)N[C@@H](CO)C(=O)N[C@@H](CO)C(=O)N[C@H](C(=O)N[C@@H](CC(N)=O)C(=O)N[C@H](C(=O)NCC(=O)N1CCC[C@H]1C(=O)N[C@@H](CCC(=O)O)C(=O)N[C@H](C(=O)N[C@@H](Cc1ccc(O)cc1)C(N)=O)[C@@H](C)O)C(C)C)[C@@H](C)O, also called compound 120)
7 | 1.56 nM | 22.6 | K([γGlu-γGlu-C20 diacid])CNTATCATQRLAEFLRHSSPNFGAILSSTPVGPETY-NH2 (disulfide 2-7)
